Experiments:
MRA-hIgA [1] = target: T1, MRA-hIgA (human); assay: SPR (Biacore T200), antibody captured on Protein A/G, MRA-hIgA as analyte, 37 C, pH 7.4, 3 uM Ca, steady state affinity
T1 construct: also called human IgA; recombinant of human IgA
Experimental: (§1) Using Biacore™ T200 surface plasma resonance assay (GE Healthcare), the obtained antibodies were assessed for their binding activity to human IgA (dissociation constant KD (M)). The measurement was carried out using as a running buffer 0.05% Tween 20® (polyoxyethylene (20) sorbitan monolaurate), 20 mmol/l ACES, 150 mmol/l NaCl (pH 7.4 or pH 5.8) containing 3 μM or 1.2 mM CaCl₂, or 0.05% Tween 20®, 20 mmol/l ACES, 150 mmol/l NaCl (pH 8.0) containing 0.1 μM or 10 mM CaCl₂.
(§2) After an adequate amount of recombinant Protein A/G (Thermo Scientific) was immobilized onto the Sensor chip CM5 (GE Healthcare) by an amino coupling method, antibodies were allowed to bind onto the sensor chip. An appropriate concentration of MRA-hIgA (described in (1-1)) was injected as an analyte to interact with antibodies on the sensor chip. Then, the sensor chip was regenerated by injecting 10 mmol/l glycine-HCl, pH 1.5. The measurement was carried out at 37° C. From the assay result, the dissociation constant KD (M) was calculated based on curve-fitting analysis and equilibrium constant analysis using Biacore™ T200 Evaluation Software (GE Healthcare).

GC-hIgA-FLAG = target: T2, GC-hIgA-FLAG (human); assay: SPR (Biacore T200), antibody captured on Protein A/G on a CM5 chip, monomeric IgA injected as analyte, 37 C, running buffer pH 7.4 with 1.2 mM Ca; response normalized to capture ligand = 100 RU; analyte concentration not given [i]
T2 construct: Recombinant human IgA with a FLAG tag, not treated with SPDP; also called unaggregated hIgA; unaggregated human IgA
T2 sequence (VH, as listed by the source, chain 1 of 2): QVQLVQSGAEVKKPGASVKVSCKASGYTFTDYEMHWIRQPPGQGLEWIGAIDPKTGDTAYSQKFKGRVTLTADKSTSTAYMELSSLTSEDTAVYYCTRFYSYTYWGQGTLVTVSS
T2 sequence (VL, as listed by the source, chain 2 of 2): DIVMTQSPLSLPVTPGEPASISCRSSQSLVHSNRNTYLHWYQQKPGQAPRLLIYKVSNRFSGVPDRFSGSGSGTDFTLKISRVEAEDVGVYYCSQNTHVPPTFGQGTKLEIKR
Experimental: The obtained antibodies were assessed for their binding to unaggregated hIgA and aggregated hIgA using Biacore™ T200 surface plasma resonance assay (GE Healthcare). The measurement was carried out using as a running buffer, 0.05% Tween 20®, 20 mmol/ACES, 150 mmol/l NaCl (pH 7.4 and pH 5.8) containing 3 μM or 1.2 mM CaCl₂.
After an adequate amount of recombinant Protein A/G (Thermo Scientific) was immobilized onto Sensor chip CM5 (GE Healthcare) by an amino coupling method, antibodies were allowed to bind onto the sensor chip. An appropriate concentration of hIgA (described in Example 1) was injected as an analyte to interact with antibodies on the sensor chip. Then, the sensor chip was regenerated by injecting 10 mmol/L Glycine-HCl, pH 1.5. The measurement was carried out at 37° C.

MRA-hIgA [2] = target: T1, MRA-hIgA; assay: SPR (Biacore T200), antibody captured on Protein A/G, MRA-hIgA as analyte, 37 C, pH 7.4, 1.2 mM Ca, 1:1 binding model
Experimental: as §1, §2

MRA-hIgA [3] = target: T1, MRA-hIgA; assay: SPR (Biacore T200), antibody captured on Protein A/G, MRA-hIgA as analyte, 37 C, pH 5.8, 1.2 mM Ca, steady state affinity
Experimental: as §1, §2

MRA-hIgA [4] = target: T1, MRA-hIgA; assay: SPR (Biacore T200), antibody captured on Protein A/G, MRA-hIgA as analyte, 37 C, pH 5.8, 3 uM Ca, steady state affinity
Experimental: as §1, §2

T1 sequence (VH, as listed by the source): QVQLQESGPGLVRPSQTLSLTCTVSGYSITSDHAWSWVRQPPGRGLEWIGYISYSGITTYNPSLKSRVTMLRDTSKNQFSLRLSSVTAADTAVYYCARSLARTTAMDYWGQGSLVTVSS

- Kd (MRA-hIgA [1]): 6.7 µM
- binding result (GC-hIgA-FLAG): binds
- Kd (MRA-hIgA [2]): 0.039 µM
- Kd (MRA-hIgA [3]): 4 µM
- Kd (MRA-hIgA [4]): 5 µM
B1: GA2-IgG1 (antibody, V domains shown)
VH: QVQLVQSGAEVKKPGSSVKVSCKASGGTFSSYAISWVRQAPGQGLEWMGGIIPIFGTANYAQKFQGRVTITADESTSTAYMELSSLRSEDTAVYYCARPRWETAISSDAFDIWGQGTMVTVSS
VL: DIQMTQSPSSLSASVGDRVTITCRASQSISDDLNWYQQKPGKAPKLLIYEASNLQSGVPSRFSGSGSGTDFTLTISSLQPEDFATYYCQQHSSSPLTFGQGTKVEIKR
notes: also called anti-hIgA antibody; anti-human IgA antibody

From US20210122812A1 (Chugai, published 2021)
